From US20090324700A1, “METHODS AND COMPOSITIONS FOR THE INHIBITION OF CATHEPSINS” (priority 2003, published 2009)

Experiments:
[1] = molecular target: T1, cathepsin B (Mus musculus, UniProt P10605); experiment: Cathepsin B activity in crude cytoplasmic extracts, RelA^−/− MEFs; assay type: cell-based; conditions: TNF-α 0.2 ng/ml, CHX 0.1 μg/ml; FIG. 1C, 7A
T1 construct: endogenous in cells; host or cells: RelA-/- or RelA+/+ MEFs (retrovirally transduced with GFP, RelA, Spi2A or antisense Spi2A)
Experimental: Survival Assays. Although RelA^−/− MEFs are markedly more sensitive to TNF-α compared to RelA^+/+ MEFs, low levels of CHX (0.1 μg/ml) were used in the survival assays. This was to suppress any protective activity of constitutively active non-RelA NF-κB molecules that are present in RelA^−/− MEFs (FIG. 4). Thus, RelA^−/− MEFs were treated with CHX and TNF-α (R&D) and the number of live GFP-positive adherent cells was counted by flow cytometry after 16 h, if not indicated otherwise. Live cells were defined as those that excluded propidium iodide (PI-negative) and had the appropriate size, as defined by forward and side scatter characteristics (Coligan et al., 1995). For RelA^+/+ MEFs, TNF-α-cytotoxicity was determined after 16 h with CHX (10 μg/ml), if not indicated otherwise. Cathepsin B activity was inhibited by a 1 h pre-treatment of MEFs with CA-074 Me (30 μM) (Peptide Institute). […] RelA^−/− MEFs were treated with (10-50 μM) sphingosine (Calbiochem) and the number of live GFP-positive adherent cells was counted by flow cytometry after 2 h.
Death effector assays. Death effector pathways were induced in […] MEFs by treatment TNF-α (0.2 ng/ml) and CHX (0.1 μg/ml). […] Protein concentration was determined by Lowry assay (DC-protein assay kit, Biorad). […]
Colorimetric assays for capases were performed in reaction buffer (50 mM HEPES, pH 7.4, 100 mM NaCl, 10 mM DTT, 1 mM EDTA, 10% glycerol, 0.1% CHAPS) at 37° C. on crude cytoplasmic extracts using p-Nitoaniline (pNA)-labeled substrates (Calbiochem) specific for caspases 3 and 7 (Ac-DEVD-pNA), caspase 8 (Ac-IETD-pNA), caspase 9 (Ac-LEHD-pNA), each at 0.2 mM. Specific activity was determined by subtracting the apparent activity detected after 1 h pre-incubation of extract with the pan-caspase inhibitor Z-VAD.fmk at 50 μM (ICN Biomedicals Inc), then normalizing for the amount of protein. […] Specific activity was determined by subtracting the apparent activity detected after 30 min pre-incubation of extract at 37° C. with the cathespin B inhibitor CA-074 Me at 30 μM (Peptide Institute) then normalizing for the amount of protein.

[2] = tested on: NIH3T3 cells; experiment: Survival of NIH3T3 cells incubated with Naphazarin (ROS); assay type: cell-based; conditions: 16 hours; three clones vs GFP controls; FIG. 12B
Experimental: FIGS. 12A-B: Spi2A inhibits the lysosomal pathway of death in the absence of caspase activity. FIG. 12A: Cathepsin B activity in crude cytoplasmic extracts from cloned GFP or Spi2A-A NIH3T3 cells before (time=00 h) or after (time=8 h) treatment with TNF-α+Z-VAD.fmk (50 μM). FIG. 12B: Spi2A protects NIH3T3 cells from death due to reactive oxygen species. NIH3T3 fibroblasts from independent clones harboring control retrovirus (GFP clones #, 18, 12 and 2) or one expressing Spi2A (Spi2A clones# 6, 4 and 2) were incubated with Naphazarin—a known initiator of Reactive Oxygen Species (ROS). After 16 hours, the percentage of live cells was determined by flow cytometry as described in Liu et al. (2003).
Spi2A protects NIH3T3 cells from death due to reactive oxygen species. NIH3T3 fibroblasts from independent clones harboring control retrovirus (GFP clones #, 18, 12 and 2) or one expressing Spi2A (Spi2A clones# 6, 4 and 2) were incubated with Naphazarin—a known initiator of Reactive Oxygen Species (ROS). After 16 hours, the percentage of live cells was determined by flow cytometry as described in Liu et al., 2003.

T1 sequence (P10605 80-333): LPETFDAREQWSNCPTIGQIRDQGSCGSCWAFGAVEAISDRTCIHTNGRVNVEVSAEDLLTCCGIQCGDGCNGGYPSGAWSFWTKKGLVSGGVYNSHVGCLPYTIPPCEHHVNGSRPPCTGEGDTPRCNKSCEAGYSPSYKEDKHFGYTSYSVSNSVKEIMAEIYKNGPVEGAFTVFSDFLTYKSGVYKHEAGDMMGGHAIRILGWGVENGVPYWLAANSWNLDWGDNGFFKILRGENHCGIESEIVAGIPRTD

B1: Spi2A: murine Spi2A polypeptide, SEQ ID NO:2; purified as C-terminal 3×FLAG protein or expressed from MIGR1 retrovirus in cells and bone-marrow chimeras (protein, listed as Mus musculus)
chain: MAGVSPAVFGCPDVTLGRNTAVREVQENVTSVDSLTLVSSNTDFAFSLYRKLVLKNPDENVVFSPFSICTALALLSLGAKSNTLKEILEGLKFNLTETPEPDIHQGFRYLLDLLSQPGNQVQISTGSALFIEKHLQILAEFKEKARALYQAEAFTADFQQPLKATKLINDYVSNHTQGKIKELISGLKESTLMVLVNYIYFKGKWKNPFDPNDTFKSEFYLDEKRSVIVSMMKTGYLTTPYFRDEELSCTVVELKYTGNASAMFILPDQGRMQQVEASLQPETLRKWKNSLKPRMIHELRLPKFSISTDYSLEHILPELGIREVFSTHADLSAITGTKDLRVSQVVHKAVLDVAEKGTEAAAATGMAGVGCCAVFDFLEIFFNRPFLMIISDTKAHIALFMAKVTNPERSTNFPNGEGASSQRLESKRLCFGDPLCLIGQ
modifications: C-terminal 3xFLAG tag
notes: purified as C-terminal 3×FLAG protein or expressed from MIGR1 retrovirus in cells and bone-marrow chimeras
Cytosolic cathepsin B activity after TNF-α, retrovirally transduced cells [1]: inhibited the induction
Survival (percentage of live cells) with Naphazarin [2]: significantly increased survival
